Data as given in publication PMC11993637.

Biological target: human hormone-sensitive lipase (HSL), adipocyte isoform (human)
Test: cryo-EM structure

**Q.** How did the stoichiometry N turn out when “human hormone-sensitive lipase (HSL), adipocyte isoform (enzyme)” was run?
**A.** The stoichiometry N was 2.
